Results published in patent US20040228866A1, “Suppressor genes” (Ludwig Institute for Cancer Research, priority 2000, published 2004).

Key:
p53 [1] = target: T1, p53 (Homo sapiens, UniProt P04637); test: Co-immunoprecipitation with p53 in transfected Saos-2 cells; type: binding
T1 construct: expressed in transfected cells
Protocol: The cells were lysed in NP40 lysis buffer and 1000 μg of lysate immunoprecipitated with antibodies to iASPP bound to Protein G beads.

U2OS and MCF7 cells = test: Apoptosis by FACS in U2OS and MCF7 cells expressing wild-type p53, with or without cisplatin; type: cell-based, human; details: for effect on cisplatin-induced apoptosis: transfected before cisplatin, FIGS. 7B and 7D
Protocol: The transfected cells were gated, and the apoptotic cells identified by FACS as described in Example 6.
Before exposure to cisplatin (5 and 3 μg/ml respectively), U2OS and MCF7 cells were transfected with plasmids encoding HPV16 E6, iASPP, or 53BP2. Thirty hours later, cells were harvested and analysed as above.
Fragments from the 5′ ends of ASPP1, ASPP2 and iASPP cDNA were cloned into a mammalian expression vector in an antisense orientation and their ability to inhibit the protein synthesis determined in vitro. The antisense nucleic acid molecules were amplified by PCR on the respective plasmid clones using primers spanning the following nucleotide regions (relative to the initial ATG): −74 to 923; −253 to 839 and −37 to 536 for ASPP1, ASPP2 and iASPP respectively. The amplified segments were purified with the QIAquick PCR purification kit (QIAGEN) and ligated in the pcDNA3.1/V5-His TOPO vector (Invitrogen) according to the manufacturer's instructions.
U2OS and MCF-7 cells were transfected with the various expression plasmids prior to the treatment with cisplatin and analyzed using FACS as described above.
To determine the anti-apoptotic role of iASPP, both U2OS and MCF-7 cells were transfected with antisense iASPP and cells analyzed as described above. […] A small increase in apoptotic cells was consistently detected (FIG. 7D).

[2] = tested on: rat embryo fibroblasts (REFs); test: Transformation of rat embryo fibroblasts with E7; type: cell-based; details: co-transfected with E7, FIG. 10A
p53 [3] = target: T1, p53; test: Transient luciferase reporter assay of p53 transactivation function in Saos-2 cells; type: cell-based; details: for effect on ASPP stimulation of p53 transactivation function on the Bax promoter: co-expressed with p53 and ASPP1 or ASPP2
Protocol: (§1) The amount of luciferase expression was determined as previously described in Samuels-Lev et al. (Mol. Cell 8:781-94, 2001, herein incorporated by reference).
(§2) The amount of transactivation function was determined as described in Example 4.
(§3) To determine the amount of protein expression, Saos-2 cells (5×10^5) were plated 24 hours prior to transfection in 6 cm dishes. […] To determine the amount of gene activation, after transfection, the cells were lysed in Reporter Lysis Buffer 16-24 hours post-wash and assayed using the Luciferase Assay kit (Promega, Wis.). The fold activation of a particular reporter was determined by the activity of the transfected plasmid above the activity of vector alone.
(§4) The expression level of transfected proteins was detected using 40 μg of the respective lysates using the antibodies V5, DX.5410, DO1, 4A4 and p73. […] Results were derived from at least three independent experiments.

Saos-2 cells = test: Apoptosis by flow cytometry (CD20-gated, sub-G1 DNA content) in transfected Saos-2 cells; type: cell-based
Protocol: Apoptosis was identified by the expression of the co-transfected cell surface marker CD20, as described in Samuels-Lev et al. (Mol. Cell 8:781-94, 2001, herein incorporated by reference).
The number of apoptotic cells was determined using the methods described in Example 6.
Cells (10^6) were plated 24-48 hours prior to transfection in 10 cm plates. Cells were grown in DMEM supplemented with 10% FCS and transfected with 2 μg of a plasmid expressing CD20 as a transfection marker. Increasing amounts of ASPP1 and ASPP2 were transfected (7.5 μg, 15 μg and 25 μg). 36 hours after the transfection, both attached and floating cells were harvested and analysed using flow cytometry as follows. The transfected cells were gated based on the expression of CD20. The percentage of apoptotic cells was measured by the accumulation of cells with a sub-G1 DNA content derived from at least three individual experiments.
The transfected cells were analyzed by flow cytometry as described in Example 6.

MCF-7 cells = test: Cellular resistance to the cytotoxic effect of cisplatin in MCF-7 cells; type: cell-based, human; details: iASPP-expressing versus non-expressing cells, FIG. 10B
Description: Many chemotherapy drugs are DNA-damage agents and induce apoptosis via p53-dependent pathway. […] The cellular resistance to the cytotoxic effect of cisplatin were compared between iASPP-expressing and non-expressing iASPP MCF-7 cells. Expression of iASPP enhanced the cellular resistance by about 2.5 fold (FIG. 10B). Such an increase in cellular resistance to cisplatin is significant with respect to cancer treatment.

p53 [4] = test: Transient luciferase reporter assay of p53 transactivation function in Saos-2 cells; type: cell-based; details: expressed without p53, FIG. 8B
Protocol: as §1, §2, §3, §4

T1 sequence (P04637 whole entry): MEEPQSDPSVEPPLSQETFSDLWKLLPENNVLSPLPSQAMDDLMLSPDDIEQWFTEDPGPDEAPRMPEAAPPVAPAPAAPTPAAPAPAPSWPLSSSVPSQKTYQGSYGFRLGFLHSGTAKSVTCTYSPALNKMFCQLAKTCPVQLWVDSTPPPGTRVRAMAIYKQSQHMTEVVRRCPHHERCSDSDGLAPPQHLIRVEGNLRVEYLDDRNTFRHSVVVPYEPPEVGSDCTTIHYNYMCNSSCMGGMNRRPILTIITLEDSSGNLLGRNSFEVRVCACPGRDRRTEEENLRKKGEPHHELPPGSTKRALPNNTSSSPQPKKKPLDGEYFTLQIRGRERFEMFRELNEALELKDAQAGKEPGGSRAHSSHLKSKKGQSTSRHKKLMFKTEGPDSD

B1: iASPP: Inhibitor of Apoptosis Stimulating Proteins, p65 rel A binding protein of 315 amino acids, SEQ ID NO: 6 (protein)
chain: MWMKDPVARPLSPTRLQPALPPEAQSVPELEEVARVLAEIPRPLKRRGSMEQAPAVALPPTHKKQYQQIISRLFHRHGGPGPGGRSQSCPPSLRDLRPGQGPLLLPHQLPFHRPAPSQSSPPEQPQSMEMRSVLRKAGSPRKARRARLNPLVLLLDAALTGELEVVQQAVKEMNDPSQPNEEGITALHNAICGANYSIVDFLITAGANVNSPDSHGWTPLHCAASCNDTVICMALVQHGAAIFATTLSDGATAFEKCDPYREGYADCATYLADVEQSMGLMNSGAVYALWDYSAEFGDELSFREGESVTVLRRDGPEETDWWWAALHGQEGYVPRNYFGLFPRVKPQRSKV
modifications: homo sapiens
- interaction with p53 by immunoprecipitation and western blot (p53 [1]): interacted with p53
- effect on cisplatin-induced apoptosis (U2OS and MCF7 cells): inhibited cisplatin-induced apoptosis to a similar extent as E6
- transforming function of E7 [2]: enhanced the transforming function of E7 significantly
- effect on ASPP stimulation of p53 transactivation function on the Bax promoter (p53 [3]): decreased or eliminated the ability
- effect on the apoptotic function of wild type p53 (Saos-2 cells; co-expressed with p53): small inhibitory effect
- effect on the enhancement of p53 apoptotic function by ASPP1 and ASPP2 (Saos-2 cells; co-expressed with p53 and ASPP1 or ASPP2): decreased or inhibited the enhanced apoptotic function of p53
- apoptosis when expressed alone (Saos-2 cells; no p53 co-expressed): did not induce apoptosis on its own
- enhancement of cellular resistance to cisplatin (MCF-7 cells): about 2.5 fold

B2: ASPP2/53BP2: 528 amino acid C-terminal polypeptide, amino acids 600-1128 of ASPP2 (protein)
chain: KPQTVAASSIYSMYTQQQAPGKNFQQAVQSALTKTHTRGPHFSSVYGKPVIAAAQNQQQHPENIYSNSQGKPGSPEPETEPVSSVQENHENERIPRPLSPTKLLPFLSNPYRNQSDADLEALRKKLSNAPRPLKKRSSITEPEGPNGPNIQKLLYQRTTIAAMETISVPSYPSKSASVTASSESPVEIQNPYLHVEPEKEVVSLVPESLSPEDVGNASTENSDMPAPSPGLDYEPEGVPDNSPNLQNNPEEPNPEAPHVLDVYLEEYPPYPPPPYPSGEPEGPGEDSVSMRPPEITGQVSLPPGKRTNLRKTGSERIAHGMRVKFNPLALLLDSSLEGEFDLVQRIIYEVDDPSLPNDEGITALHNAVCAGHTEIVKFLVQFGVNVNAADSDGWTPLHCAASCNNVQVCKFLVESGAAVFAMTYSDMQTAADKCEEMEEGYTQCSQFLYGVQEKMGIMNKGVIYALWDYEPQNDDELPMKEGDCMTIIHREDEDEIEWWWARLNDKEGYVPRNLLGLYPRIKPRQRSLA
modifications: left off: small tags and cut ends
notes: 528 amino acid C-terminal polypeptide, amino acids 600-1128 of ASPP2
- effect on cisplatin-induced apoptosis (U2OS and MCF7 cells): inhibited cisplatin-induced apoptosis to a similar extent as E6
- reduction of the transactivation function of p53 (p53 [3]; co-expressed with p53, FIG. 3): about 50%
- effect on ASPP stimulation of p53 transactivation function on the Bax promoter (p53 [3]): inhibited ASPP2 stimulation
- stimulation of p21waf1 and PG synthetic promoters (p53 [3]; co-expression with p53): slight stimulation
- stimulation of the promoter activity of mdm2 and cyclin G (p53 [3]; co-expression with p53): failed to stimulate
- apoptotic cells (Saos-2 cells; p53, ASPP2 and ASPP2/53BP2 all co-expressed, FIG. 4C): 30%

B3: ASPP2/bBP2: 1005 amino acid polypeptide, amino acids 123-1128 of ASPP2 (protein)
chain: RMDLTLAELQEMASRQQQQIEAQQQLLATKEQRLKFLKQQDQRQQQQVAEQEKLKRLKEIAENQEAKLKKVRALKGHVEQKRLSNGKLVEEIEQMNNLFQQKQRELVLAVSKVEELTRQLEMLKNGRIDSHHDNQSAVAELDRLYKELQLRNKLNQEQNAKLQQQRECLNKRNSEVAVMDKRVNELRDRLWKKKAALQQKENLPVSSDGNLPQQAASAPSRVAAVGPYIQSSTMPRMPSRPELLVKPALPDGSLVIQASEGPMKIQTLPNMRSGAASQTKGSKIHPVGPDWSPSNADLFPSQGSASVPQSTGNALDQVDDGEVPLREKEKKVRPFSMFDAVDQSNAPPSFGTLRKNQSSEDILRDAQVANKNVAKVPPPVPTKPKQINLPYFGQTNQPPSDIKPDGSSQQLSTVVPSMGTKPKPAGQQPRVLLSPSIPSVGQDQTLSPGSKQESPPAAAVRPFTPQPSKDTLLPPFRKPQTVAASSIYSMYTQQQAPGKNFQQAVQSALTKTHTRGPHFSSVYGKPVIAAAQNQQQHPENIYSNSQGKPGSPEPETEPVSSVQENHENERIPRPLSPTKLLPFLSNPYRNQSDADLEALRKKLSNAPRPLKKRSSITEPEGPNGPNIQKLLYQRTTIAAMETISVPSYPSKSASVTASSESPVEIQNPYLHVEPEKEVVSLVPESLSPEDVGNASTENSDMPAPSPGLDYEPEGVPDNSPNLQNNPEEPNPEAPHVLDVYLEEYPPYPPPPYPSGEPEGPGEDSVSMRPPEITGQVSLPPGKRTNLRKTGSERIAHGMRVKFNPLALLLDSSLEGEFDLVQRIIYEVDDPSLPNDEGITALHNAVCAGHTEIVKFLVQFGVNVNAADSDGWTPLHCAASCNNVQVCKFLVESGAAVFAMTYSDMQTAADKCEEMEEGYTQCSQFLYGVQEKMGIMNKGVIYALWDYEPQNDDELPMKEGDCMTIIHREDEDEIEWWWARLNDKEGYVPRNLLGLYPRIKPRQRSLA
- interaction with p53 by immunoprecipitation and western blot (p53 [1]): interacted with p53 in vivo
- stimulation of the transactivation function of p53 (p53 [3]; versions of ASPP2 co-expressed with p53, FIG. 3): about 2 fold

B4: Ikb: the inhibitor of p65 Rel A (protein, UniProt P25963 1-317, looked up)
NF-kappa-B inhibitor alpha: MFQAAERPQEWAMEGPRDGLKKERLLDDRHDSGLDSMKDEEYEQMVKELQEIRLEPQEVPRGSEPWKQQLTEDGDSFLHLAIIHEEKALTMEVIRQVKGDLAFLNFQNNLQQTPLHLAVITNQPEIAEALLGAGCDPELRDFRGNTPLHLACEQGCLASVGVLTQSCTTPHLHSILKATNYNGHTCLHLASIHGYLGIVELLVSLGADVNAQEPCNGRTALHLAVDLQNPDLVSLLLKCGADVNRVTYQGYSPYQLTWGRPSTRIQQQLGQLTLENLQMLPESEDEESYDTESEFTEFTEDELPYDDCVFGGQRLTL
- inhibition of the transactivation function of p53 on the Bax promoter (p53 [3]; 50 ng co-expressed with p53): very little inhibition
- transactivation function of p53 on the mdm2 promoter (p53 [3]; FIG. 8C, Ikb even in the presence of ASPP2): hardly decreased
- effect on ASPP stimulation of p53 transactivation function on the Bax promoter (p53 [3]): significantly decreased ASPP2-mediated stimulation
- inhibition of Bax promoter reporter activity (p53 [4]): did not show any detectable inhibition
- percentage of apoptotic cells, co-expressed with p53 and ASPP2 (Saos-2 cells; Example 11, p53+ASPP2 30%): 16%
- percentage of apoptotic cells, co-expressed with p53 (Saos-2 cells; Example 11, p53 alone […]%): 11%
- percentage of apoptotic cells, expressed alone (Saos-2 cells; Example 11, vector alone 4.6%): 7.2%

B5: E6: viral oncoprotein from human papilloma virus that binds p53 and targets it for degradation (protein, UniProt P03126 1-158, looked up)
Protein E6: MHQKRTAMFQDPQERPRKLPQLCTELQTTIHDIILECVYCKQQLLRREVYDFAFRDLCIVYRDGNPYAVCDKCLKFYSKISEYRHYCYSLYGTTLEQQYNKPLCDLLIRCINCQKPLCPEEKQRHLDKKQRFHNIRGRWTGRCMSCCRSSRTRRETQL
- percentage of transfected cells that die of apoptosis after cisplatin (U2OS and MCF7 cells; cisplatin 5 and 3 μg/ml (U2OS, MCF7), thirty hours): below 15%
- effect on apoptosis induced by ASPP1 or ASPP2 (U2OS and MCF7 cells; co-expression): inhibited the apoptosis induced by ASPP1 or ASPP2
- effect on cisplatin-induced apoptosis (U2OS and MCF7 cells): reduced the percentage of apoptotic cells to half
